# Test results as given in patent publication US20120041175A1 (ROCKEFELLER UNIVERISTY, published 2012).
# B1: Beclin 1-EGFP (fusion of mouse Beclin 1 and EGFP at the C-terminus) (other)
# chain: MEGSKASSSTMQVSFVCQRCSQPLKLDTSFKILDRVTIQELTAPLLTTAQAKPGETQEEEANSGEEPFIETRQDGVSRRFIPPARMMSTESANSFTLIGEASDGGTMENLSRRLKVTGDLFDIMSGQTDVDHPLCEECTDTLLDQLDTQLNVTENECQNYKRCLEILEQMNEDDSEQLQRELKELALEEERLIQELEDVEKNRKVVAENLEKVQAEAERLDQEEAQYQREYSEFKRQQLELDDELKSVENQVRYAQIQLDKLKKTNVFNATFHIWHSGQFGTINNFRLGRLPSVPVEWNEINAAWGQTVLLLHALANKMGLKFQRYRLVPYGNHSYLESLTDKSKELPLYCSGGLRFFWDNKFDHAMVAFLDCVQQFKEEVEKGETRFCLPYRMDVEKGKIEDTGGSGGSYSIKTQFNSEEQWTKALKFMLTNLKWGLAWVSSQFYNK
# notes: Expressed from a BAC transgene in beclin 1-/-; also called Beclin 1-GFP; not shown: EGFP inserted at the C-terminus in place of the stop codon
# Columns and labels:
# [1] = target: B1; assay: anti-GFP affinity isolation of Beclin 1-EGFP from mouse tissues, mass spectrometry
# Procedure: (§1) Rubicon contains an N-terminal RUN (for RPIP8, UNC-14 and NESCA) domain, a C-terminal cysteine-rich domain, and a CCD domain in the central of the protein sequence. (D and E) HEK 293T cells were transfected with either N-terminal FLAG-tagged […] or C-terminal EGFP-tagged (E) ATG14L or Rubicon. Immunoprecipitation was performed with anti-FLAG (D) or anti-GFP antibody (E). The endogenous Beclin 1 co-immunoprecipitated were detected by Western blot analysis using anti-Beclin 1 antibody. WCL represents whole cell lysate, and IP represents immunoprecipitated.
# (§2) Affinity purification of Beclin 1 interacting proteins and mass spectrometric identification of these proteins were carried out as described in Wang et al. (2006), with slight modification. In brief, tissue extracts were obtained from both beclin 1^{+/-} and beclin 1^{-/-}; beclin 1-GFP/+ mice at 4 month of age by homogenizing 2 brains or 1 liver with a motor-driven homogenizer (speed 2.5, 12 strokes) in 4 ml buffer containing 0.32 M sucrose, 1 mM NaHCO₃, 20 mM HEPEs/pH 7.4, 1 mM MgCl₂, 0.25 mM CaCl₂, EDTA-free protease inhibitor cocktail, 200 μg/mL PMSF, pepstatin 4 μg/mL, and DNase I. The tissue extracts were centrifuged at 1,400 g for 10 minutes and the pellets were homogenized again in 4 ml buffer for 8 strokes and centrifuged again. Supernatants from the two homogenization steps were pooled, centrifuged at 750 g for 10 minutes. […]
# [2] = target: nPIST (endogenous, mouse tissue) (mouse, UniProt Q8BH60 2-463); assay: as above
# Procedure: as §1, §2
binding result [1],binding result [2],Binder
no binding,–,"Bif1 (endogenous, mouse tissue) (other, UniProt Q9JK48 1-365, looked up) MNIMDFNVKKLAADAGTFLSRAVQFTEEKLGQAEKTELDAHLENLLSKAECTKIWTEKIMKQTEVLLQPNPNARIEEFVYEKLDRKAPSRINNPELLGQYMIDAGTEFGPGTAYGNALIKCGETQKRIGTADRELIQTSALNFLTPLRNFIEGDYKTIAKERKLLQNKRLDLDAAKTRLKKAKAAETKSSSEQELRITQSEFDRQAEITRLLLEGISSTHAHHLRCLNDFVEAQMTYYAQCYQYMLDLQKQLGSFPSNYLSNNNQTSGTPVPYALSNAIGPSAQASTGSLVITCPSNLNDLKESSNNRKARVLYDYDAANSTELSLLADEVITVFSVVGMDSDWLMGERGNQKGKVPITYLELLN"
–,no binding,B1
